Experiment: protein stability index of a GFP-peptide fusion (GPS, HEK-293T) (PSI 1-6); higher = more stable
Settings: c terminus: native
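Further: lentivirally expressed fusion library, cells FACS-sorted into six equal-sized GFP/DsRed ratio bins, PSI computed from sequencing read fractions per bin weighted by bin number.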

| Protein | protein stability index (parent: NP_116010.1) | protein stability index (parent: NP_015628.1) |
| --- | --- | --- |
| HSLRAVSTDPPHHDHHDEFCLMP [BEX2 WT] | 2.48 | – |
| HSLRAVSTDPPHHDHHDEFCLMPA [BEX2 addA] | 3.18 | – |
| EQRNSRWNTVLRAVKAKTHHLEPT [TRPA1 addT] | – | 4.19 |

Source: the supplement of paper PMC10567573
